# According to patent publication US12077763B2, “RNA-based control of powdery mildew” (Greenlight Biosciences, Inc., priority 2021, dated 2024):
# B1: ES52: dsRNA trigger SEQ ID NO 113; gene target Hypotethical effector (nucleic acid)
# DNA: ATGTTCAAAAAATTTATTTTCCTCTCAAGCCAGGCCTTAATGGTACTTTCGAATCCTCTTTATATTGGTGATAATCATCTTCCGAGCGACCAAAATAATCCGTTCTTAATATCCTATGATTGGAAAGCTGGCTTTACAAGCGAATTCGAACTTCATGATTCCTGCAATGCAACACAGAAAAAACAGCTGCAAGACGGCCTCTCTGACGCTGTGACACTTGCTAGGCATGCTAAAGAACATATTCTTGTGAAGGGAACTGAATCACCCATATATAAGAAATATTTCGGTCAAGGTCCTACAGGATCGGTCCTGGGATGGTATGACAAAATTGCTTCTTCTGACCGAAAAGACATCCTTTTCCGTTGTGATGACCCCGATAAGAATTGCCAAACTCAACCTCAATGGGCTGGACATCACCGCGGAAAAAATGCGTCATTAGAGACAGTGATCTGCGAGCTTTCATTTCTCACTCGGCTTCCACTTGAAGCTC
# B2: GS3311 (nucleic acid)
# sense: CUUCUCGGUAAUUCCGCAACAUUUUUAACCAUGACAUUCCAUUUCGUACAUGCUCUUGAUAUUCCGAUAACGUCAGCCUCUUGAAAUGCAUCACUUCCUAUGGCAGUAGUGGGCACUUGGCCGCAAAAAACUACUAGUGGUGUACCGUCAGAUAGAGCGUCCUGCAUCGGUGUUAUGACAUUUGUUGCACCAGGGCCAGAAGUAACUAGAAUCACCCCAGGAAGUCCACUAGCUCUGGCAUAGCCUUCAGCCAUAUGUCCAGCACCCUGUUCAUGUUUCGGUAGAAUAAAAUCGAAGUGCCUUGAAUUAUAAAUAGCGUCGAAAACGGGAAGAAUUGCUCCACCAGGAUAACCGAAAAUAUGUUUUACACCUUGCCGUAACAUCAUUUCGUGAAAUAU
# antisense: AUAUUUCACGAAAUGAUGUUACGGCAAGGUGUAAAACAUAUUUUCGGUUAUCCUGGUGGAGCAAUUCUUCCCGUUUUCGACGCUAUUUAUAAUUCAAGGCACUUCGAUUUUAUUCUACCGAAACAUGAACAGGGUGCUGGACAUAUGGCUGAAGGCUAUGCCAGAGCUAGUGGACUUCCUGGGGUGAUUCUAGUUACUUCUGGCCCUGGUGCAACAAAUGUCAUAACACCGAUGCAGGACGCUCUAUCUGACGGUACACCACUAGUAGUUUUUUGCGGCCAAGUGCCCACUACUGCCAUAGGAAGUGAUGCAUUUCAAGAGGCUGACGUUAUCGGAAUAUCAAGAGCAUGUACGAAAUGGAAUGUCAUGGUUAAAAAUGUUGCGGAAUUACCGAGAAG
# B3: GS3313 (nucleic acid)
# sense: AUCGUGAAUGGAGCUGUAACUGAAACAACAGCUUUACUAAACGAAAAAUGGGACAAAAUAUUUUACACUGGCAAUACCCAAGUAGGUGUAAUAAUUGCCAAAAAAGCUGCAGAAACUCUUACACCAGUUUGCUUAGAGCUCGGGGGAAUCAAUCCGGCAAUCAUUACGAAAAAUGCAGACCCAUACCUUGCUGCUCGUCGGCUAUUAUGGGGUAAACUAAUGAAUGCUGGACAAGUUUGCAUCAGUCAAAAUUAUAUUCUUGUCGAACAAGAAGUUUUACCAAUUUUCGUAGAGCAUUUGAAAAACACUCUAAAUGAAUUCUAUCCAAAUGGUAUAAGAAAUAGUCCAGAUUUUGGAAGGAUAGUCAAUCAGCGUCAUUUUUCUAGAAUUAAAAAAAU
# antisense: AUUUUUUUAAUUCUAGAAAAAUGACGCUGAUUGACUAUCCUUCCAAAAUCUGGACUAUUUCUUAUACCAUUUGGAUAGAAUUCAUUUAGAGUGUUUUUCAAAUGCUCUACGAAAAUUGGUAAAACUUCUUGUUCGACAAGAAUAUAAUUUUGACUGAUGCAAACUUGUCCAGCAUUCAUUAGUUUACCCCAUAAUAGCCGACGAGCAGCAAGGUAUGGGUCUGCAUUUUUCGUAAUGAUUGCCGGAUUGAUUCCCCCGAGCUCUAAGCAAACUGGUGUAAGAGUUUCUGCAGCUUUUUUGGCAAUUAUUACACCUACUUGGGUAUUGCCAGUGUAAAAUAUUUUGUCCCAUUUUUCGUUUAGUAAAGCUGUUGUUUCAGUUACAGCUCCAUUCACGAU
# B4: GS3314 (nucleic acid)
# sense: CGAGGUUCAUGGUAGUUCCCUAUCUAAGGAUGAUCUUCGAGAUUUGAGAAAUAUUGACCUCUCAGACUUUUCCUACCGACAGCCCUAUAUGCAAGAAAGAAGAGACGCCGUUGGCCAAAGAGGAAACAUAAGUAAUAGAGGAAGAGGAAGGGUGAGAGGUAUAGGAAGGGAUCCAAACGUGGACCUUCCCCAACCCUUAAGUAGUCAACCUUUAAGGAGGGACGAACAAGCAUUUCAAAGGCAACUAGCAGUCCAAUCCUCUCAGUCUGUCACGACAAGGAACUCCGUCCAUCAAAAUACAACACCAGCAUCGCAAAUAUCAAAUAAUACUCCAAAAUCACAGUCUCAAGUAACAAGAUCCCCCCAGACUUCUAAUAACCUUGAAAGUGCAAACAUU
# antisense: AAUGUUUGCACUUUCAAGGUUAUUAGAAGUCUGGGGGGAUCUUGUUACUUGAGACUGUGAUUUUGGAGUAUUAUUUGAUAUUUGCGAUGCUGGUGUUGUAUUUUGAUGGACGGAGUUCCUUGUCGUGACAGACUGAGAGGAUUGGACUGCUAGUUGCCUUUGAAAUGCUUGUUCGUCCCUCCUUAAAGGUUGACUACUUAAGGGUUGGGGAAGGUCCACGUUUGGAUCCCUUCCUAUACCUCUCACCCUUCCUCUUCCUCUAUUACUUAUGUUUCCUCUUUGGCCAACGGCGUCUCUUCUUUCUUGCAUAUAGGGCUGUCGGUAGGAAAAGUCUGAGAGGUCAAUAUUUCUCAAAUCUCGAAGAUCAUCCUUAGAUAGGGAACUACCAUGAACCUCG
# B5: GS3317 (nucleic acid)
# sense: CAGGACUGUCCAGUUAGAUCUAGAGUCAAAAUGCCCAAAUCAUCCAAAAAGUAAGGUGGUAUAAGAAGAAGCUUAACGUUUAUAGACGUAACUGAAUCUCGGAAGAACAGCUCUUUCCUAGCAAGCAAGUAGUUGUGAAAUUACCUGCUCCUAGGUUUAUUUUUUAUUUUCAGGUGGAAUAUUGAUGAUCGCUGGAUCCACAAAAUGUAAAUUAAAAAAAUAAAAACAAAUAUCUGGUGACUGAAGGAUUUCAUGUAGUGACUAAACGUCAGUACAAGUCACAGAGUACUGAUCAAAACUACAGAAUUAUAUCUCGACGUCUUCCCUGAAGAUGAUAAAAGAUUCACCCACAACAUAAAGCUUUCAUUAUAUAU
# antisense: AUAUAUAAUGAAAGCUUUAUGUUGUGGGUGAAUCUUUUAUCAUCUUCAGGGAAGACGUCGAGAUAUAAUUCUGUAGUUUUGAUCAGUACUCUGUGACUUGUACUGACGUUUAGUCACUACAUGAAAUCCUUCAGUCACCAGAUAUUUGUUUUUAUUUUUUUAAUUUACAUUUUGUGGAUCCAGCGAUCAUCAAUAUUCCACCUGAAAAUAAAAAAUAAACCUAGGAGCAGGUAAUUUCACAACUACUUGCUUGCUAGGAAAGAGCUGUUCUUCCGAGAUUCAGUUACGUCUAUAAACGUUAAGCUUCUUCUUAUACCACCUUACUUUUUGGAUGAUUUGGGCAUUUUGACUCUAGAUCUAACUGGACAGUCCUG
# B6: GS3312 (nucleic acid)
# sense: CUGCUGGUAGUGACAAGGGCACAGAACACGUCUGGGAAAUAAGCCAGAGCGUGGGCAUGAUAAUUGGUGGAAUUUUAGAAAAUUUGCUCAUGCUUAUGGGAAAAGUUCCCAGCUUAACGAGGAGGCAAGUACGAUAUAGCUGUAUGACAAGAUACUAUGACUGUAGUAAAGCUAAGAGGCUACUUGGAUAUACACCAGAAGUCCACCUGUGGGAAGGCAUAGAGAGGUCAGUUGCUUGGUUCAAAAAUCAGAGUUAAUUAUCGAAGCCCGAAUGAAUACUUCAUAUUACUAAACUUGCCCGAAUUAAAAUUCUGGCUAGCUUAGUUAUCAAAUAAAAAUUGAUAGUUAAGUUGAUCUUUCAUUGAUGAAUAUAUAAGUACUUAACCUUAUCAUUCAAU
# antisense: AUUGAAUGAUAAGGUUAAGUACUUAUAUAUUCAUCAAUGAAAGAUCAACUUAACUAUCAAUUUUUAUUUGAUAACUAAGCUAGCCAGAAUUUUAAUUCGGGCAAGUUUAGUAAUAUGAAGUAUUCAUUCGGGCUUCGAUAAUUAACUCUGAUUUUUGAACCAAGCAACUGACCUCUCUAUGCCUUCCCACAGGUGGACUUCUGGUGUAUAUCCAAGUAGCCUCUUAGCUUUACUACAGUCAUAGUAUCUUGUCAUACAGCUAUAUCGUACUUGCCUCCUCGUUAAGCUGGGAACUUUUCCCAUAAGCAUGAGCAAAUUUUCUAAAAUUCCACCAAUUAUCAUGCCCACGCUCUGGCUUAUUUCCCAGACGUGUUCUGUGCCCUUGUCACUACCAGCAG
# B7: GS3310 (nucleic acid)
# sense: CGUCGACCUCAAAAGCAGAGAAGUUGGGCGAGUUGAUUAUUGCUUCUACGGAGAAAGCCUGUAUAACUGUAGGUUCGUAGCUUUGAGCAUUCAAAAAUUUGUUGUAAACGAUUUUAGUAGAUGAGUAUUCACUUGGCAAAUGAGAGAUUUGAUCUGCUAUUGUUUGAGCGUCUGCAAAGGUUGGAAUAUCUUUCCCUACGCCAGAGAAACUUAAAACAAUAUUUUUACUACUUGACCGACUCAAUUGUGCCUUAGCCUUCUCUCCCAAUACCACAAUAUCGGCAUUGGGGUUUUCAGAGAGCAUUUUUCGAACGUGUUUACUUAAGCCUGAAUGAAUACCGCCGCACAAUCCUUUAUCUGAGCUUGCAACUACAAUCAAGUACUUUUGGUCAUCUUUU
# antisense: AAAAGAUGACCAAAAGUACUUGAUUGUAGUUGCAAGCUCAGAUAAAGGAUUGUGCGGCGGUAUUCAUUCAGGCUUAAGUAAACACGUUCGAAAAAUGCUCUCUGAAAACCCCAAUGCCGAUAUUGUGGUAUUGGGAGAGAAGGCUAAGGCACAAUUGAGUCGGUCAAGUAGUAAAAAUAUUGUUUUAAGUUUCUCUGGCGUAGGGAAAGAUAUUCCAACCUUUGCAGACGCUCAAACAAUAGCAGAUCAAAUCUCUCAUUUGCCAAGUGAAUACUCAUCUACUAAAAUCGUUUACAACAAAUUUUUGAAUGCUCAAAGCUACGAACCUACAGUUAUACAGGCUUUCUCCGUAGAAGCAAUAAUCAACUCGCCCAACUUCUCUGCUUUUGAGGUCGACG
# Test system: E. necator
# Assay: Leaf disc assay, dry inoculum (settling tower), decrease in disease severity / hyphal growth (Example 2)
# Conditions: decrease in disease severity (hyphal growth) relative to untreated control, value ± SE; for % decrease =/− SE TP1: time point 1 (untreated control hyphal growth ≥50%); for % decrease =/− SE TP2: time point 2
Molecule,% decrease =/− SE TP1,% decrease =/− SE TP2
B1,6 ± 1%,6 ± 2%
B2,29 ± 7%,24 ± 7%
B3,9 ± 9%,13 ± 9%
B4,17 ± 8%,12 ± 8%
B5,21 ± 9%,17 ± 9%
B6,13 ± 4%,19 ± 6%
B7,22 ± 8%,11 ± 8%
